Measurements: the DeepSol protein solubility set

Assay: soluble on expression in E. coli; label from the status in PepcDB or PDB records

Row | Sequence | soluble on expression in E. coli
1 | SNAMLIIETLPLLRQHIRRLRQEGKRVALVPTMGNLHDGHMKLVDEAKARADVVIVSIFVNPMQFDRPDDLVRYPRTLQEDCEKLNKRKVDYVFAPAVEEIYPHGLEGQTYVDVPGLSTMLEGASRPGHFRGVSTIVSKLFNLIQPDIACFGEKDFQQLALIRKMVADMSYDIEIVGVPIIRAKDGLALSSRNAYLTAEQRKIAPGLYNVMNSIAEKLIAGNRELQEIIAIAEQELNEKGFRADDIQIRDADTLLELTETSKRAVILAAAWLGQARLIDNQSVTLAQ | soluble
2 | MDICERSDEVVRYDSAQIRNGELELSSTVDDALFTDGLVATSGMLNADCRLVFGLVMFGHPLDEPMLCFTANGFELTVSIPNEDGETSSTWVIMARER | not soluble
3 | MGSDKIHHHHHHEDDLSAKAWLKNMSQAMHDKQYKTSIIQLQADHIRPLVYIHGIVDNKEVALLEYLNGPPKNAVRVGNTVTFIEHDQPAYSVVAPRIQGIWPAALAGDLSQLEKGYQFVIGGRGRIAGRPGQMIRLLANDDNRYDAQVWIDMDTYLPLRFDSLNKEKQLLEQTMVIELIELTEPANILIEAAKQEWPAVMNQAERTDGKNWQFTWLPEGFDVVVRDHHRLIGIHEPVEYVALTDGLANISVYVARAGENPMPNELLIRNGLSMVVVKVGTLEVVAIGKVPSETLDKIANSLVLK | not soluble
4 | MKIDKYSAILGNTVGFHNMSTLTDHRPVASLPFGGKYRLIDFPLSSLANAGVRSVFGIFQQDNISSVFDHIRSGREWGLSTLLSHYYLGIYNTRVESSTVGKEYYQQLLTYLKRSGSNQTVALNCDVLINIDLNQVFHLHSTTKEPITVVYKKLAKKDISEVNAILDVDETDHVLSHKLFDSKSTAETFNMSTDIFVVDTPWLIEHLEEEAKKEHPEKLRYVLRDLAVKEGAFAYEYTGYLANIHSVKSYYQANIDMLESQKFYSLFSPNQKIYTKVKNEEPTYYANTSKVSTSQFASGSIIEGQVANSVLSRNIHVHKDSLVKDSLLFPRVVIGEGAQVEYAILDKGVEVEHGVVIRGTAEHPVVVKKGAKVTEDIHS | not soluble
5 | QTLRALAERAARIEQDPAAGDYMSALRELPFIRELMAGRLPLQWAPARMVSDDPAKGLGKAPPAGLLTQQLRNILGEPRRTLDLVSPYFVPAEAGTQAFAALARGGAQVRVLTNALEATDVAVVHSGYAKRRKALLQAGVRLYEMRRSYAGPKPQGRGRFGSSGSSLHAKTFGVDGERVFIGSFNFDPRSANLNTELGFVIESPDMARHIAATFDQDIPAATYEVRLDDDGSLYWLE | not soluble
6 | MAHHHHHHMGIGYSQPLTVDTAGPPSSFSCARTVAHVAALTIQRSTQFLGGSTPPPSQSHTHAHHRKKHSHVRSEIACWASATLPSHSNLQRLRDPTTAVNRHSKRCKGEMVVRRMPSDGAGSHATVSENRAPSKRKLRGGFLFASSKWREHLTCNNQNGDTEDHWGLGEGEVRFHSWERILALSVCPLFLLPDGRDSGVTALCGHTEGHEGKERTAVGIMLRTVVKMGDESELTKGGSRGN | soluble
7 | MTTINPTNYTLLKKQAASLIEDEHHMIAILSNMSALLNDNLDQINWVGFYLLEQNELILGPFQGHPACVHIPIGKGVCGTAVSERRTQIVADVHQFEGHIACDANSKSEIVVPIFKDDKIIGVLDIDAPITDRFDDNDKEHLEAIVKIIEKQLA | not soluble
8 | MTGLLDGKRILVSGIITDSSIAFHIARVAQEQGAQLVLTGFDRLRLIQRITDRLPAKAPLLELDVQNEEHLASLAGRVTEAIGAGNKLDGVVHSIGFMPQTGMGINPFFDAPYADVSKGIHISAYSYASMAKALLPIMNPGGSIVGMDFDPSRAMPAYNWMTVAKSALESVNRFVAREAGKYGVRSNLVAAGPIRTLAMSAIVGGALGEEAGAQIQLLEEGWDQRAPIGWNMKDATPVAKTVCALLSDWLPATTGDIIYADGGAHTQLL | soluble
9 | MVSETSEETLYCIGCGAAIQTTDPKAAGYTPNSALQKSLASEAQDLYCQRCFRLRHYNEIVPVGLTDDDFRHLLATIRDANALVVYVVDIFDLNGSIIPGLQRFVGDNPVLLVGNKEDVLPRQLRRTKLREWMNQQVRAQGIKPVDVALTSAKKGHSIDELLAMIEKYRRGRDVYVVGVTNVGKSTLINRIIANNTGLKDLITTSRFPGTTLDKIEIPLDDGHMMVDTPGIIHPEQMAHVLSGDDLKLVSPQREIRPKGFQLGNGQTLFLGGVARLDIVDTLKATGTVYVDNNLPLHRTRTENADNFYTKHVGELITPPTGDAVADFPPLVRHEFKVTEISDIVFEGLGWVTVAADTRVAAWAPKGVAVLTRPAMINKRLEHHHHHH | soluble
